The assay has as its target Human CTLA-4/CD152, His tag (Sino Biological, Cat: 11159-H08H) (human, UniProt P16410 36-162). Nature of the assay: BLI. For orientation: In BLI a coated tip is dipped into the sample, and binding shifts an interference pattern.

Sequence of Human CTLA-4/CD152, His tag (Sino Biological, Cat: 11159-H08H) (P16410 36-162): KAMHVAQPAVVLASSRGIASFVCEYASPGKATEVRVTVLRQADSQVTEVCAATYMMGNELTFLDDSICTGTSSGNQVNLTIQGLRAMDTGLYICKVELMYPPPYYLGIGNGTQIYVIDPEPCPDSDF

B1: GI101C1 (hCD80-Fc) (Fc fusion)
chain: VIHVTKEVKEVATLSCGHNVSVEELAQTRIYWQKEKKMVLTMMSGDMNIWPEYKNRTIFDITNNLSIVILALRPSDEGTYECVVLKYEKDAFKREHLAEVTLSVKADFPTPSISDFEIPTSNIRRIICSTSGGFPEPHLSWLENGEELNAINTTVSQDPETELYAVSSKLDFNMTTNHSFMCLIKYGHLRVNQTFNWNTTKQEHFPDNGSGGGGSGGGGSGGGGSAESKYGPPCPPCPAPEAAGGPSVFLFPPKPKDQLMISRTPEVTCVVVDVSQEDPEVQFNWYVDGVEVHNAKTKPREEQFNSTYRVVSVLTVLHQDWLNGKEYKCKVSNKGLPSSIEKTISKAKGQPREPQVYTLPPSQEEMTKNQVSLTCLVKGFYPSDIAVEWESNGQPENNYKTTPPVLDSDGSFFLYSRLTVDKSRWQEGNVFSCSVLHEALHNHYTQKSLSLSLG
In general, Kd refers to a measure of binding affinity in units of concentration. A lower Kd goes with higher affinity. For the molecule B1, the Kd came to 3.2 nM.
